Target: T1, biotinylated recombinant human BCMA (ACROS Cat #BC7-H82F0) (human, UniProt Q02223 1-54, biotinylated (site not stated))
T1 construct: Bought reagent; also called CD269; B-cell maturation antigen
T1 sequence (looked up): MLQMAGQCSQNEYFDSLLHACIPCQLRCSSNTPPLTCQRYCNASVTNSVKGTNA
Assay: flow cytometry of CAR T cells stained with biotinylated recombinant antigen

B1: anti-BCMA CAR comprising the amino acid sequence of SEQ ID NO: 86 (other)
chain: QVQLVQSGAELKKPGASVKVSCKASGNTLTNYVIHWVRQAPGQRLEWMGYILPYNDLTKYSQKFQGRVTITRDKSASTAYMELSSLRSEDTAVYYCTRWDWDGFFDPWGQGTTVTVSSGGGGSGGGGSGGGGSEIVMTQSPATLSVSPGERASISCRASQSLVHSNGNTHLHWYQQRPGQAPRLLIYSVSNRFSEVPARFSGSGSGTDFTLTISSVESEDFAVYYCSQTSHIPYTFGGGTKLEIKSAAAFVPVFLPAKPTTTPAPRPPTPAPTIASQPLSLRPEACRPAAGGAVHTRGLDFACDIYIWAPLAGTCGVLLLSLVITLYCNHRNRKRGRKKLLYIFKQPFMRPVQTTQEEDGCSCRFPEEEEGGCELRVKFSRSADAPAYQQGQNQLYNELNLGRREEYDVLDKRRGRDPEMGGKPRRKNPQEGLYNELQKDKMAEAYSEIGMKGERRRGKGHDGLYQGLSTATKDTYDALHMQALPPR
notes: Chimeric antigen receptor on engineered human T cells
  binding result: binds
